Measured values from US20110243928A1 (published 2011).
*: point of attachment. Biotin = O=C1N[C@H]2[C@H](CS[C@H]2CCCCC(=O)*)N1

T1: fine mapping peptide 421 (SMILES …)
T1 peptide: Biotin-SGSGKLFREG-NH2

T2: fine mapping peptide 423 (SMILES N=C(N)NCCC[C@H](NC(=O)[C@H](Cc1ccccc1)NC(=O)CNC(=O)[C@H](CO)NC(=O)CNC(=O)[C@H](CO)NC(=O)CCCC[C@@H]1SC[C@@H]2NC(=O)N[C@@H]21)C(=O)N[C@@H](CCC(=O)O)C(=O)NCC(N)=O)
T2 peptide: Biotin-SGSGFREG-NH2

T3: E. coli-expressed recombinant cynomolgus IL-13 (cynomolgus, UniProt Q5I6E4 21-132 (Macaca thibetana entry))
T3 construct: also called cyno IL13 (CA); cIL-13
T3 chain: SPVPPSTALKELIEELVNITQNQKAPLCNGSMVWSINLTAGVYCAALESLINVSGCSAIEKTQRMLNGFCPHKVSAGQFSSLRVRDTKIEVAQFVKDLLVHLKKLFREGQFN

T4: 16mer biotinylated human IL-13 peptide number 24 (human, N-terminal biotin; C-terminal amide)
T4 construct: format Biotin-SGSG-PEPTIDE-amide; also called Peptide 24
T4 peptide: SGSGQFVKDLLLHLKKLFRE

B1: monoclonal antibody 6A1 (antibody, IgG1, V domains shown)
VH: EIQLQQSVAELVRPGASVRLSCTASGFYIKDTYMHWVIQRPEQGLEWIGTIDPANGNTKYVPKFQGKATITADTSSNTAYLRLSSLTSEDTAIYYCARSIYDDYHYDDYYAMDYWGQGTSVTVSS
VL: DVLMTQTPLSLPVSLGDQASISCRSSQNIVHINGNTYLEWYLQKPGQSPKLLIYKISDRFSGVPDRFSGSGSGTDFTLKISRVEAEDLGVYYCFQGSHVPWTFGGGTKLEIK
notes: also called 6A1 parental mAb; parental mouse mAb 6A1
B2: L1+A1 (antibody, human IgG1, kappa, V domains shown)
VH: QVQLVQSGAEVKKPGSSVKVSCKASGFYIKDTYMHWVRQAPGQGLEWMGTIDPANGNTKYVPKFQGRVTITADESTSTAYMELSSLRSEDTAVYYCARSIYDDYHYDDYYAMDYWGQGTLVTVSS
VL: DIVMTQSPLSLPVTPGEPASISCRSSQNIVHINGNTYLEWYLQKPGQSPRLLIYKISDRFSGVPDRFSGSGSGTDFTLKISRVEADDVGIYYCFQGSHVPWTFGQGTKLEIKR
notes: Humanised 6A1, VH construct A1 and VL construct L1, human gamma1 wild type / kappa constant regions; also called A1L1; humanised anti-IL-13 mAb L1+A1

Assays:
fine mapping peptide 421 = molecular target: T1, fine mapping peptide 421; assay: fine mapping peptide ELISA
Method: (§1) A binding epitope for mAb 6A1 was determined using a peptide set based around […] for binding to human IL-13 and […] for binding to cynomolgus IL-13. Peptides were ordered with 1 amino acid sequentially removed from either the N or C-terminus of these parental peptide sequences (i.e. […] or […]), in order to define the precise linear binding epitope for mAb 6A1.
(§2) An ELISA method was used to detect binding of immobilised biotinylated peptide to the parental mAb 6A1.

fine mapping peptide 423 = molecular target: T2, fine mapping peptide 423; assay: fine mapping peptide ELISA
Method: as §1, §2

[1] = molecular target: T3, E. coli-expressed recombinant …; assay: BIAcore
[2] = molecular target: T5, E. coli-expressed recombinant det-1 tagged human IL-13 (human, UniProt P35225 35-146); assay: BIAcore
T5 construct: also called Det-1 tagged human IL-13 (made in-house); not shown: det-1 tag
T5 sequence (P35225 other isoform, or with tags, fused parts or gaps): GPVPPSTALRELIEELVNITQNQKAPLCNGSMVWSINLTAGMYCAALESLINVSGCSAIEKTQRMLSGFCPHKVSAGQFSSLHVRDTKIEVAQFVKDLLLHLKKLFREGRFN

[3] = molecular target: T6, E. coli-expressed recombinant human IL-13 (human, UniProt P35225 35-146); assay: BIAcore
T6 construct: Untagged E. coli-expressed human IL-13; also called hIL-13; human IL13 (CA)
T6 sequence (P35225 other isoform, or with tags, fused parts or gaps): as above

[4] = molecular target: T6, E. coli-expressed recombinant human …; assay: BIAcore, summary of the analyses
[5] = molecular target: T4, 16mer biotinylated human IL-13 peptide …; assay: BIAcore analysis 3, antibody over immobilised biotinylated peptide 24
Method: Completed for the 16mer biotinylated human IL-13 peptide number 24 (identified as the linear binding epitope for parental mAb 6A1, see section 6.7). Note that the absolute KD values obtained for binding to peptide ligands are often quite different to those seen for binding to whole protein targets.
The kinetics analysis was performed on a Biacore 3000 machine using direct binding of antibody to immobilised IL-13 peptide. Briefly, IL-13 biotinylated peptide was captured using a Biacore SA (strepavidin) Biosensor chip. The antibodies were then passed over the sensor surface at various concentrations. The subsequent binding curves were analysed with Biacore analysis software BIAeval 4.1 to determine kinetics. The experiment was carried out using Biacore HBS-EP buffer

Binder	absorbance at 490 nm (fine mapping peptide 421) [A490]	absorbance at 490 nm (fine mapping peptide 423) [A490]	Kd [1] [nM]	koff [1] [s⁻¹]	kon [1] [M⁻¹ s⁻¹]	Kd [2] [nM]	koff [2] [s⁻¹]	kon [2] [M⁻¹ s⁻¹]	Kd [3] [nM]	koff [3] [s⁻¹]	kon [3] [M⁻¹ s⁻¹]	Kd [4] [nM]	koff [4] [s⁻¹]	kon [4] [M⁻¹ s⁻¹]	fold reduction in affinity against chimaeric 6A1 [5] [fold]
B1	0.059	0.052	0.0612	5.6e-05	914000	0.032	7.2e-05	2.25e+06	0.27	0.000184	682000				
B2												~0.168	8.22e-05	~600000	~3
